Positions count from the first letter of the chain named.
B1: hCD103.05A (antibody, mouse IgG1, V domains shown)
VH: EVQLQQSGPELEKPGASAKISCKASGYSFTGYNMNWVKQSNGKSLEWIGNIDPYYGGTSYNQKFKGKATLTVDKSSSTAYMQLKSLTSEDSAVYYCARSFYGYDAGSPYNYAMDYWGQGTPVTVSP
VL: DIVMTQSHKFMSTSVGDRVSITCKASQDVGTFVAWYQQKPGQSPKLLIYWASTRHTGVPDRFTGSGSGTDFTLTISNVQSEDLADYFCHQYSSYPYTFGGGTQLEIK
notes: Also tested labelled with AF647, conjugated with Df and labelled with 89Zr; these are written under this molecule; also called clone 05A; hCD103.05 mAb
B2: hCD103.07A (antibody, mouse IgG1, V domains shown)
VH: EVQLQESGPSLVKPSQTLSLTCSVTGDSITSGYWNWIRKFPGNKLEYMGYITYSGSTYYNPSLKSRISITRDTSKNQYYLQLNSVTTEDTATYYCARNYYGSSSMDYWGQGTSVTVSS
VL: DIVMTQSQKFMSTSVADRVSVTCKASQNVGSDVAWYQQKPGQSPKSLIYSASYRYSGVPDRFTGSGSGTDFTLTISNVQSEDLAEYFCQQYNSYPSTFGGGTKLEIK
notes: also called clone 07A
B3: hCD103.01A (antibody, V domains shown)
VH: B2 VH with A96T, N98H, S103D, S104A
VL: DIVMTQSHKFMSTSVGDRVSITCKASQDVSIAVAWYQQRPGQSPKLLIYSASYRYTGVPDRFTGSGSGTDFTFTISSVQAEDLAVYYCQQHYSTPWTFGGGTKLEIK
notes: Also tested labelled with AF647, conjugated with Df and labelled with 89Zr; these are written under this molecule; also called clone 01A; hCD103.01 mAb
B4: hCD103.06A (antibody, mouse IgG1, V domains shown)
VH: QVQLQQPGSELVRPGASVKLSCKASGYTFTSYWMHWVKQRHGQGLEWIGNIYPGSGSTNYDEKFKSKGTLTVDTSSSTAYMHLSSLTSEDSAVYYCTRGVYDNPYYFDYWGQGTTLTVSS
VL: DIQMTQSSSNLSVSLGGRVTITCKASDHINNWLAWYQQKPGNAPRVLISGATSLETGVPSRFSGSGSGKDYTLSITSLQTEDVATYYCQQYWSIPLTFGAGTKLELK
notes: also called clone 06A; hCD103.06 mAb

Biological target: T1, human CD103 (integrin Alpha-E) / human integrin Beta-7 heterodimer on cells (human, UniProt P38570 19-1179; P26010 20-798)
T1 construct: the assay field tells which cells; also called hCD103/hBeta7; CHO.K1-hCD103/hBeta7
Experiment: flow cytometry competition on CD103+CD8+ T cells; pre-incubation with unlabeled 03A; table n=2
Method: (§1) Percentage binding of fluorescently labeled mAbs was determined using flow cytometry. Maximum binding was set at 100%.
(§2) Percentage binding of fluorescently labeled mAbs was determined using flow cytometry. Maximum binding was set at 100%

T1 sequence (P38570 19-1179 limits assumed, chain 1 of 2): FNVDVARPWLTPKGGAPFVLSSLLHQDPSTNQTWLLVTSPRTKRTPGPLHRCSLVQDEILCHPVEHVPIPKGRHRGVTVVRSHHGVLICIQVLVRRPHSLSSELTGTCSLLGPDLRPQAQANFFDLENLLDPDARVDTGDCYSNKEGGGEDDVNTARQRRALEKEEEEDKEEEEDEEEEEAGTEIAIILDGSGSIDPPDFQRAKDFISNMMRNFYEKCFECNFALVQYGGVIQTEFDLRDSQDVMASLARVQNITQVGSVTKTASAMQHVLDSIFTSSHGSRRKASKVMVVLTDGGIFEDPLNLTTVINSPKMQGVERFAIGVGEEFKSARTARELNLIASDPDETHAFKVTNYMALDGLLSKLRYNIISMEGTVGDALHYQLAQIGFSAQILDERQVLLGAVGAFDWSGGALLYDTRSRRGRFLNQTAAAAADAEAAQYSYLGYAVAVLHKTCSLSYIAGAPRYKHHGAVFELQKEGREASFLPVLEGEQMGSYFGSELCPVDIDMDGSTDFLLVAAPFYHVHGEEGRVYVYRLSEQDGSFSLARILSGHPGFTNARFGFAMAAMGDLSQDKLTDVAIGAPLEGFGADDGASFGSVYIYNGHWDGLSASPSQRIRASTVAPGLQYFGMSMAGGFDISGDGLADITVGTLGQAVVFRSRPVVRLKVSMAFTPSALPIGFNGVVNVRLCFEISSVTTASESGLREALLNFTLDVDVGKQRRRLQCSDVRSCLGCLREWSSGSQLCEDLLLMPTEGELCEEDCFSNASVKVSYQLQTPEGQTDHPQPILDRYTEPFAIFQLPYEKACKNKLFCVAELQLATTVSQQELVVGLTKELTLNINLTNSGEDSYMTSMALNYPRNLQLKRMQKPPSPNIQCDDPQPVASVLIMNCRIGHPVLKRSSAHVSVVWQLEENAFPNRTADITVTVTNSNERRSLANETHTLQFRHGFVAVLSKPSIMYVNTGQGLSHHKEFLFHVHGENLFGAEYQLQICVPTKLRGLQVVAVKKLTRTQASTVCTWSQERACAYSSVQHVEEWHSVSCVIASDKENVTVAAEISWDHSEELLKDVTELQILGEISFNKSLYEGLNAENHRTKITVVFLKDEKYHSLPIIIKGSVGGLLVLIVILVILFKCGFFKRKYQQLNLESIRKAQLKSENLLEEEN
T1 sequence (P26010 20-798 limits assumed, chain 2 of 2): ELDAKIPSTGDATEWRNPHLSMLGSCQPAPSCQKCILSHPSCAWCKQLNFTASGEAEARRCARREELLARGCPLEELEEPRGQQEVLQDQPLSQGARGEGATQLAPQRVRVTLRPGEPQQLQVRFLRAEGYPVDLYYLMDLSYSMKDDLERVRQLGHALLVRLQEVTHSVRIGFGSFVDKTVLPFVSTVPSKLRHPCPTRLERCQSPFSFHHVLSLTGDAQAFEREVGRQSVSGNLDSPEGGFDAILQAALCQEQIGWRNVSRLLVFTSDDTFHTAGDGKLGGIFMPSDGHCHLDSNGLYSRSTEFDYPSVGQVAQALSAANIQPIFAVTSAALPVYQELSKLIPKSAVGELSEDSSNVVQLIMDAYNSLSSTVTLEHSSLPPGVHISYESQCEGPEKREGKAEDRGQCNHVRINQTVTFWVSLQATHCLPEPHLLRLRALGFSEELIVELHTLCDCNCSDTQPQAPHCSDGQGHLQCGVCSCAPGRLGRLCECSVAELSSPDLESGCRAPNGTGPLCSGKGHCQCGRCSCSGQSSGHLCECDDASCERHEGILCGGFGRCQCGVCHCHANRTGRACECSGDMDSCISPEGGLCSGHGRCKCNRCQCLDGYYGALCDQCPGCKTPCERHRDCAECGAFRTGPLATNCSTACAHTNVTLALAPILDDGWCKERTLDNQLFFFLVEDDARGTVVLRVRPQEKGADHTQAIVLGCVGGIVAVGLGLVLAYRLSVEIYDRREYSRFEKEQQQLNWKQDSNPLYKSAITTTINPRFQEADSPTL

| Binder | % binding of the fluorescently labeled mAb (IgG pre-incubation = 100) [%] |
| --- | --- |
| B1 | 90.9 |
| B2 | 77.8 |
| B3 | 97.3 |
| B4 | 108 |

Biological target: T2, recombinant hCD103/hBeta7 Fc-protein (Acro-Biosystems) (human, UniProt P38570 19-1124; P26010 20-723, limits assumed)
T2 construct: Bought protein with no catalog number and no construct limits printed; also called recombinant human CD103/Beta7; recombinant hCD103/beta7; not shown: fusion part of the bought 'Fc-protein'
Experiment: ELISA on coated recombinant human CD103/beta7 Fc-protein, OD450-620, lower right panel titled rhCD103/beta7
Method: Protein coated 96-well plates were blocked in protein-free blocking buffer (Pierce) for 1.5 hour at 37° C. Plates were washed and incubated for 1 hour at RT with mAb/Fab in 0.1% Tween-20 in PBS. Next, plates were washed with PBS-T and incubated for 1 hour at RT with goat-anti-mouse IgG-HRP conjugate (Southern Biotech) for mAbs, and goat-anti-human Fab-HRP conjugate (Jackson Immuno Research) for the Fab fragments in 0.1% Tween-20 in PBS. […] Reactions were stopped with 0.5 M H2SO4 and absorbances were read at 450 and 610 nm.

T2 sequence (P38570 19-1124 limits assumed, chain 1 of 2): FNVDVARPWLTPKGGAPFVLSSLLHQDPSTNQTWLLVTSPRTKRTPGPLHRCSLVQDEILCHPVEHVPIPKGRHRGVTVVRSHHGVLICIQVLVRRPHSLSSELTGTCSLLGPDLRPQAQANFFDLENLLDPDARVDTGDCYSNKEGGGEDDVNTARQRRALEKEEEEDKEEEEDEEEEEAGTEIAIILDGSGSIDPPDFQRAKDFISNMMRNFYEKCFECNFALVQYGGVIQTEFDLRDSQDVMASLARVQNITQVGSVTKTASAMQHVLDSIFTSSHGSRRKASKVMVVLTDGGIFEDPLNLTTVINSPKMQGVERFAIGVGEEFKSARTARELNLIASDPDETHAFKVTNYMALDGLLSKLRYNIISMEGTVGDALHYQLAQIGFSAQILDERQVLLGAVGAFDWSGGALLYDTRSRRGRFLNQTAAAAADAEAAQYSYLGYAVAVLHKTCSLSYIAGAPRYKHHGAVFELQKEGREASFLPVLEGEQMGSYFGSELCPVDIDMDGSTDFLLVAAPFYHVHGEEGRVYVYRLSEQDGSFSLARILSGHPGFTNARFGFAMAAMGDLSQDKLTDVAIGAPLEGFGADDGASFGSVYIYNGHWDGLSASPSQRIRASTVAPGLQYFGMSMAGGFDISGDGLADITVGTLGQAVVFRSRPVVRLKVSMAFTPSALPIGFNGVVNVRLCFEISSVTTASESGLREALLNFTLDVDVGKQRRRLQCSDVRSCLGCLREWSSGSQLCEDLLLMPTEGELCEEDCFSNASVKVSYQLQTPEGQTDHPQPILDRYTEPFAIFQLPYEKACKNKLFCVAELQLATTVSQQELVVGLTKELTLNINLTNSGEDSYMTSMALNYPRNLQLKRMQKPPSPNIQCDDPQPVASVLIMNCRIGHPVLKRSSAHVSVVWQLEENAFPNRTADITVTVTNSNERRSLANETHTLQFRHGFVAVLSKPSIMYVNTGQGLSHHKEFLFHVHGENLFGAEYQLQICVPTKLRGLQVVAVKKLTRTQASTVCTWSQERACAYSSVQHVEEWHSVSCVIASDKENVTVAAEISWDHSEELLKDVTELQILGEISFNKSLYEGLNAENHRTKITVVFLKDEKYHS
T2 sequence (P26010 20-723 limits assumed, chain 2 of 2): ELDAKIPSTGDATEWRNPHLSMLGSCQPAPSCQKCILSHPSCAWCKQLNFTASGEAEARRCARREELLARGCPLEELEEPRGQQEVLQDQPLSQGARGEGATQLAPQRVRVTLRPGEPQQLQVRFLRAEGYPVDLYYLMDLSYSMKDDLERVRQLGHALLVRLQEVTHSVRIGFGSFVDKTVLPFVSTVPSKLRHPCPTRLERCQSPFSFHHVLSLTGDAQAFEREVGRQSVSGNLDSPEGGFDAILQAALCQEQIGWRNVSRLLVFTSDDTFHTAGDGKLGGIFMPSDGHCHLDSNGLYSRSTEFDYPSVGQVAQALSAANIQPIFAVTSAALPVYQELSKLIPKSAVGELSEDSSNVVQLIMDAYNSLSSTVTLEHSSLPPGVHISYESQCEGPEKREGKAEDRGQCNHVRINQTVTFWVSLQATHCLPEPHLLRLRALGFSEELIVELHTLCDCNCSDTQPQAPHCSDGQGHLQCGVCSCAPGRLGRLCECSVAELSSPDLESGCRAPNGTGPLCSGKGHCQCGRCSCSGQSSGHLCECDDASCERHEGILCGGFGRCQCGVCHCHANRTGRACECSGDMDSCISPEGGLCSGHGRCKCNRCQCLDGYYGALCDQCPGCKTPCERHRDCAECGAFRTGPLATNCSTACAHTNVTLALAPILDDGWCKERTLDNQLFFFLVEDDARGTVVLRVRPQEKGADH

| Binder | EC50 (read off the curve) [µg/mL] |
| --- | --- |
| B1 | ~0.003 |
| B3 | ~0.003 |

Biological target: T1, human CD103 (integrin Alpha-E) / human …
Experiment: cell-based ELISA on CHO.K1-hCD103/hBeta7 cells, Df-conjugated mAb, relative absorbance, upper panel
Method: (§3) Wells were washed with PBS and incubated with Rabbit anti-Mouse/IgG-HRP (1:4000, Dako) or Fab specific Goat anti-Human/IgG-HRP (1:4000; Sigma Aldrich) for 1 h at 37° C. Next, wells were washed with PBS and TMB substrate (KPL) was added. The color reaction was stopped by adding 1M HCl solution and the absorbance was measured by a microplate reader (Thermo Scientific).

| Binder | EC50 (read off the curve) [µg/mL] |
| --- | --- |
| B1 | ~0.04 |
| B3 | ~0.04 |

Biological target: T1, human CD103 (integrin Alpha-E) / human …
Experiment: flow cytometry competition on CD103+CD8+ T cells; pre-incubation with unlabeled 02A; table n=1
Method: as §1, §2

| Binder | % binding of the fluorescently labeled mAb (IgG pre-incubation = 100) [%] |
| --- | --- |
| B1 | 4.3 |
| B2 | 0.5 |
| B3 | 2.3 |
| B4 | 104 |

Biological target: T1, human CD103 (integrin Alpha-E) / human …
Experiment: flow cytometry competition on CD103+CD8+ T cells; pre-incubation with unlabeled 05A; table n=2
Method: as §1, §2

| Binder | % binding of the fluorescently labeled mAb (IgG pre-incubation = 100) [%] |
| --- | --- |
| B1 | 14.2 |
| B2 | 11.4 |
| B3 | 77.4 |
| B4 | 102 |

Biological target: T1, human CD103 (integrin Alpha-E) / human …
Experiment: flow cytometry competition on CD103+CD8+ T cells; pre-incubation with unlabeled IgG (f2); table n=2
Method: as §1, §2

| Binder | % binding of the fluorescently labeled mAb (IgG pre-incubation = 100) [%] |
| --- | --- |
| B1 | 100 |
| B2 | 100 |
| B3 | 100 |
| B4 | 100 |

Biological target: T1, human CD103 (integrin Alpha-E) / human …
Experiment: cell-based ELISA on CHO.K1-hCD103/hBeta7 cells, relative absorbance, upper panel
Method: as §3

| Binder | EC50 (read off the curve) [µg/mL] |
| --- | --- |
| B1 | ~0.04 |
| B3 | ~0.04 |

Biological target: T1, human CD103 (integrin Alpha-E) / human …
Experiment: flow cytometry competition on CD103+CD8+ T cells; pre-incubation with unlabeled MCA708 (f4); table n=2
Method: as §1, §2

| Binder | % binding of the fluorescently labeled mAb (IgG pre-incubation = 100) [%] |
| --- | --- |
| B1 | 89.7 |
| B2 | 92.5 |
| B3 | 92.3 |
| B4 | 1 |

Biological target: T3, human integrin Alpha-4 / human integrin Beta-7 heterodimer on CHO-K1 cells (human, UniProt P13612 34-1032; P26010 20-798)
T3 construct: Used as the control for reactivity with hBeta7; also called hAlpha4/hBeta7; CHO.K1-hAlpha4/hBeta7
Experiment: cell ELISA on CHO.K1-humanAlpha4/beta7 cells, abs 450-610

T3 sequence (P13612 34-1032 limits assumed, chain 1 of 2): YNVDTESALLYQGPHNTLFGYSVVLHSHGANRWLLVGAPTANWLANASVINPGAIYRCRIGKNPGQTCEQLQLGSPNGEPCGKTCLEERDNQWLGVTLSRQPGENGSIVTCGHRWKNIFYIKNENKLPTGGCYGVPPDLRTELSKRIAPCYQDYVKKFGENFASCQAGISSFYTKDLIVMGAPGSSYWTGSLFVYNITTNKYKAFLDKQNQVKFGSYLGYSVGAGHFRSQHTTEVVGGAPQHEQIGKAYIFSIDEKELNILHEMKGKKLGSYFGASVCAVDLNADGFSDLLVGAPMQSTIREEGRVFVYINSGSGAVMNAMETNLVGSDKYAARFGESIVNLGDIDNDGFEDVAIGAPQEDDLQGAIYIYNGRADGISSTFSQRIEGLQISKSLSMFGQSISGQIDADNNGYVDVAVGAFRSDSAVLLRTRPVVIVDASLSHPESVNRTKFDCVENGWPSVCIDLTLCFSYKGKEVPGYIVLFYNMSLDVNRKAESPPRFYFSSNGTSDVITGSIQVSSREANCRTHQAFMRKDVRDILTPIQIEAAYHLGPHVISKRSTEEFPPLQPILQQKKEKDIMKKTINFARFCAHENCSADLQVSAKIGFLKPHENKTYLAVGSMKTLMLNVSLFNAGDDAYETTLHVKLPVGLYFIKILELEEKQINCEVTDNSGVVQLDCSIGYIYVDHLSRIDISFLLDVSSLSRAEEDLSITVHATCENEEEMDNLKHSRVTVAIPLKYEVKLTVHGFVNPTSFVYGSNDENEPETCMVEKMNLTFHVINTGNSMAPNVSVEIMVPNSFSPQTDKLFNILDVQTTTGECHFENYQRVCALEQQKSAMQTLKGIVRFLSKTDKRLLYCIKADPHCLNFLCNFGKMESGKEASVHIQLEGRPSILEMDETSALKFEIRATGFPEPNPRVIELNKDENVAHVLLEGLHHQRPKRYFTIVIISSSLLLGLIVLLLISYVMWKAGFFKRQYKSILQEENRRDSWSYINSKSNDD
T3 sequence (P26010 20-798 limits assumed, chain 2 of 2): as the sequence (P26010 20-798 limits assumed, chain 2 of 2) above

| Binder | binding result |
| --- | --- |
| B1 | no binding |
| B2 | no binding |
| B3 | no binding |
| B4 | no binding |

Biological target: T1, human CD103 (integrin Alpha-E) / human …
Experiment: binding of 89Zr-labeled mAb to CHO.K1-hCD103/hBeta7 cells, bound activity in counts

| Binder | EC50 (read off the curve) [µg/mL] |
| --- | --- |
| B1 | ~0.4 |

Biological target: T1, human CD103 (integrin Alpha-E) / human …
Experiment: flow cytometry competition on CD103+CD8+ T cells; pre-incubation with unlabeled 01A; table n=1
Method: as §1, §2

| Binder | % binding of the fluorescently labeled mAb (IgG pre-incubation = 100) [%] |
| --- | --- |
| B1 | 2.6 |
| B2 | 0.7 |
| B3 | 1.5 |
| B4 | 96 |

Biological target: T1, human CD103 (integrin Alpha-E) / human …
Experiment: flow cytometry competition on CD103+CD8+ T cells; pre-incubation with unlabeled 07A; table n=2
Method: as §1, §2

| Binder | % binding of the fluorescently labeled mAb (IgG pre-incubation = 100) [%] |
| --- | --- |
| B1 | 56.9 |
| B2 | 29.8 |
| B3 | 26.6 |
| B4 | 97 |
